From EP4755913A1 (Abiotech Pharmaceutical Co., Ltd, dated 2026)

Columns and labels:
[1] = molecular target: T1, Human FcγRIIIB (CD16b) (ACRO, Cat No. CDB-H5227) (human, UniProt O75015 17-200); assay: BLI (Octet R8), receptor on HIS1K sensor, antibody in solution
T1 construct: Immobilised on HIS1K (anti-His) sensors, so His-tagged; tag not described

[2] = molecular target: T2, Human FcγRIIIA (CD16a-V176) (ACRO, Cat No. CD8-H52H4) (human, UniProt P08637 17-208); assay: as above
T2 construct: Immobilised on HIS1K (anti-His) sensors, so His-tagged; tag not described

[3] = molecular target: T3, Human FcγRIIIA (CD16a-F176) (ACRO, Cat No. CDA-H5220) (human, UniProt P08637 17-208); assay: as above
T3 construct: Immobilised on HIS1K (anti-His) sensors, so His-tagged; tag not described

[4] = molecular target: T4, Human FcγRIIB/C (CD32b/c) (ACRO, Cat No. CDB-H5228) (human, UniProt P31994 46-217, limits assumed); assay: as above
T4 construct: Immobilised on HIS1K (anti-His) sensors, so His-tagged; tag not described
T4 sequence (looked up): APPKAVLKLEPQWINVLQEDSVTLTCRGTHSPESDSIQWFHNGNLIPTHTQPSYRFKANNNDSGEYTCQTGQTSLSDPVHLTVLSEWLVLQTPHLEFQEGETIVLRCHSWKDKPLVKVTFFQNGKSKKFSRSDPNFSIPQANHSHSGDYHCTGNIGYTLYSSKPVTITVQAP

[5] = molecular target: T5, Human FcγRI (CD64) (ACRO, Cat No. FCA-H52H1) (human, UniProt P12314 16-288, limits assumed); assay: as above
T5 construct: His-tagged (CD64-His), immobilised on HIS1K sensors; tag not described; also called CD64-His

[6] = molecular target: T6, Recombinant human c-Met-HIS (Acrobiosystems, C-MET-H5227) (human, UniProt P08581 25-932); assay: ELISA, C-MET-HIS coated, anti-human IgG Fc detection
T6 construct: Bought reagent; also called HGFR-his; HGFR-HIS; not shown: His tag

[7] = molecular target: T7, Human FcRn (ACRO, Cat No. FCM-H8286) (human, UniProt P55899 24-297; P61769 21-119, biotinylated (Bio-FcRn, site not stated)); assay: BLI (Octet R8), biotinylated FcRn on SA sensor, antibody in solution
T7 construct: immobilised on SA (streptavidin) sensors; also called Bio-FcRn

[8] = molecular target: T8, Recombinant human EGFR-HIS (Acrobiosystems, EGR-H5222) (human, UniProt P00533 25-645); assay: ELISA, EGFR-HIS coated, anti-human IgG Fc detection
T8 construct: Bought reagent; not shown: His tag

[9] = molecular target: T9, Human EGFR membrane protein on cells (human, UniProt P00533 25-645); assay: cell-based or functional assay
[10] = molecular target: T10, Human c-Met membrane protein on cells (human, UniProt P08581 25-932); assay: cell-based or functional assay
[11] = molecular target: T8, Recombinant human EGFR-HIS …; assay: BLI (Octet R8), antibody captured on AHC2 sensor, EGFR-His in solution
[12] = molecular target: T11, Human FcγRIIA (CD32a) (ACRO, Cat No. CDA-H5221) (human, UniProt P12318 36-218, limits assumed); assay: BLI (Octet R8), antibody on ProA sensor, CD32a in solution
T11 construct: Used in solution against antibody on ProA sensors
T11 sequence (looked up): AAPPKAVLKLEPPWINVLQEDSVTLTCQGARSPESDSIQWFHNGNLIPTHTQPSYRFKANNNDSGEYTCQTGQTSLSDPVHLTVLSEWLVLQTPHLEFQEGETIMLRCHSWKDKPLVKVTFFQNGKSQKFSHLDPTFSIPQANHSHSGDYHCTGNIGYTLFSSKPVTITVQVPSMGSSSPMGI

[13] = molecular target: T9, Human EGFR membrane protein on cells; assay: flow cytometry on CHO-K1 cells overexpressing human EGFR
[14] = molecular target: T6, Recombinant human c-Met-HIS …; assay: BLI (Octet R8), affinity for c-Met-his compared with affinity for EGFR-HIS
[15] = molecular target: Human C1q (Abcam, Cat No. AB282858) (human, UniProt P02745 23-245; P02746 28-253; P02747 29-245, limits assumed); assay: BLI (Octet R8), antibody on FAB2G sensor, C1q in solution
[16] = molecular target: T6, Recombinant human c-Met-HIS …; assay: BLI (Octet R8), antibody captured on AHC2 sensor, c-Met-HIS in solution
[17] = molecular target: T10, Human c-Met membrane protein on cells; assay: flow cytometry on CHO-K1 cells overexpressing human c-Met
[18] = molecular target: T12, HGFR-hfc (Acrobiosystems, Cat No. MET-H5256) (human, UniProt P08581 25-932); assay: blocking ELISA, HGFR-hfc coated, HGF-HIS as competitor ligand, anti-His detection
T12 construct: Bought reagent; also called human HGFR protein; receptor c-Met; not shown: human Fc (hfc)

B1: Anti-c-Met/EGFR bispecific antibody BT461-DB (bispecific antibody, human IgG1, kappa)
light 1: DIQMTQSPSSLSASVGDRVTITCRSSQNIVHSNGNTYLDWYQQTPGKAPKLLIYKVSNRFSGVPSRFSGSGSGTDFTFTISSLQPEDIATYYCFQYSHVPWTFGQGTKLQITRTVAAPSVFIFPPSDEQLKSGTASVVCLLNNFYPREAKVQWKVDNALQSGNSQESVTEQDSKDSTYSLSSTLTLSKADYEKHKVYACEVTHQGLSSPVTKSFNRGEC
heavy 1: not shown
light 2: DIQMTQSPSSLSASVGDRVTITCSVSSSVSSIYLHWYQQKPGKAPKLLIYSTSNLASGVPSRFSGSGSGTDFTLTISSLQPEDFATYYCQVYSGYPLTFGGGTKVEIKRTVAAPSVFIFPPSDEQLKSGTASVVCLLNNFYPREAKVQWKVDNALQSGNSQESVTEQDSKDSTYSLSSTLTLSKADYEKHKVYACEVTHQGLSSPVTKSFNRGEC
heavy 2: not shown
notes: DuoBody format, assembled in vitro by Fab arm exchange from BT461-DB-EGFR and BT461-DB-c-Met; parents expressed in FUT8 knock-out CHO-K1 cells (no fucose); also called BT461 with Duobody structure
Q: B1 was tested. Which Kd [1] did it give?
A: The Kd was 14400 nM.

Q: What about the Kd [2] of the same binder?
A: The Kd was 26.5 nM.

Q: What about the Kd [3] of the same binder?
A: Its Kd is 330 nM.

Q: What about the Kd [4] of the same binder?
A: Its Kd is 1650 nM.

Q: What about the Kd [5] of the same binder?
A: The Kd was 8.97 nM.

Q: And the EC50 [6]?
A: The EC50 was 0.00822 µg/mL.

Q: What about the Kd [7] of the same binder?
A: Its Kd is 228 nM.

Q: And the EC50 [8]?
A: Its EC50 is 1.3 µg/mL.

Q: And the “EC50 of Antibody-Mediated ADCC Killing Curves (ADCC Reporter Bioassay, CHOK1-EGFR target cells)” value [9]?
A: The value was 0.185 µg/mL.

Q: And the “EC50 of Antibody-Mediated ADCC Killing Curves (ADCC Reporter Bioassay, CHOK1-c-Met target cells)” value [10]?
A: The value was 0.162 µg/mL.

Q: What about the Kd [11] of the same binder?
A: The Kd was 21.9 nM.

Q: What about the koff [11] of the same binder?
A: Its koff is 0.0033 s⁻¹.

Q: And the kon [11]?
A: The kon was 151000 M⁻¹ s⁻¹.

Q: What about the Kd [12] of the same binder?
A: The Kd was 1520 nM.

Q: And the EC50 [13]?
A: Its EC50 is 1.73 µg/mL.

Q: What about the “fold difference between the affinities of the two arms (c-Met-his against EGFR-HIS)” value [14] of the same binder?
A: The value was greater than 20 fold.

Q: And the Kd [15]?
A: Its Kd is 11.2 nM.

Q: And the Kd [16]?
A: Its Kd is 0.766 nM.

Q: What about the koff [16] of the same binder?
A: The koff was 0.000213 s⁻¹.

Q: And the kon [16]?
A: The kon was 278000 M⁻¹ s⁻¹.

Q: What about the EC50 [17] of the same binder?
A: Its EC50 is 0.266 µg/mL.

Q: And the IC50 [18]?
A: The IC50 was 0.456 µg/mL.
